T1: human GM-CSFRα (mature receptor alpha chain, as on human cells) (human, UniProt P15509 23-400)
T1 sequence: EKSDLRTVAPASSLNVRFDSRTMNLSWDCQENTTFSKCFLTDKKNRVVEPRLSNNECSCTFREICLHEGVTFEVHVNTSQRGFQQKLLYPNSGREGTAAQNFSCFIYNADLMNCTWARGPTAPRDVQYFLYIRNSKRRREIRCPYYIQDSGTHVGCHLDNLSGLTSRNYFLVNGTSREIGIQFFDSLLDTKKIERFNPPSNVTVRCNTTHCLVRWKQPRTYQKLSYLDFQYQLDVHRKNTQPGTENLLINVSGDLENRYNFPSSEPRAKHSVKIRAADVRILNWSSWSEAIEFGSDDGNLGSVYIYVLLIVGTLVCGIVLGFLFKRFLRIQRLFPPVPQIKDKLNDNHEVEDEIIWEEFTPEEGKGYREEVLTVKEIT

T2: cynomolgus GM-CSFRα on cynomolgus granulocytes (cynomolgus, UniProt A0A2K5UC70 23-393)
T2 sequence: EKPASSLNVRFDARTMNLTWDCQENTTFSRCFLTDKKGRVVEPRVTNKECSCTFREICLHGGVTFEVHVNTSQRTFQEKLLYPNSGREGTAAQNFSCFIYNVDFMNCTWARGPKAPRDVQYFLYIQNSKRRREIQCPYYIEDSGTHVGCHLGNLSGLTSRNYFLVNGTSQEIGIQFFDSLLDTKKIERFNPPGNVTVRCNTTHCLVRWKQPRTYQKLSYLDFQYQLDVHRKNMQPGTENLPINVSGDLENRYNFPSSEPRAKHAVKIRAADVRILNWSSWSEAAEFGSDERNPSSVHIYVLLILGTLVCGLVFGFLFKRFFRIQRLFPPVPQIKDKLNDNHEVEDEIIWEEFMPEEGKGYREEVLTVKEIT


How the values were obtained:
Assay in all cases: cell-based or functional assay
[1] = molecular target: T1, human GM-CSFRα (mature receptor alpha …)
[2] = molecular target: T1, human GM-CSFRα (mature receptor alpha …); remark: listed apart in the source
[3] = molecular target: T2, cynomolgus GM-CSFRα on cynomolgus …

| Binder | IC50, GM-CSF induced proliferation of TF-1 cells [2] [nM] | IC50, cynomolgus granulocyte shape change assay [3] [nM] | other results |
| --- | --- | --- | --- |
| Antibody 6 (germlined or non-germlined not stated at these places) (antibody, V domains shown) VH: QVQLVQSGAEVKKPGASVKVSCKVSGYTLTELSIHWVRQAPGKGLEWMGGFDPEENEIVYAQRFQGRVTMTEDTSTDTAYMELSSLRSEDTAVYYCAIVGSFSPLTLGLWGQGTMVTVSS VL: QSVLTQPPSVSGAPGQRVTISCTGSGSNIGAPYDVSWYQQLPGTAPKLLIYHNNKRPSGVPDRFSGSKSGTSASLAITGLQAEDEADYYCATVEAGLSGSVFGGGTKLTVL |  |  | IC50, colony formation assay with 10 ng/ml human GM-CSF [1]: ~0.08 µg/mL |
| Antibody 13 IgG4 (antibody, V domains shown) VH: QVQLVQSGAEVKKPGASVKVSCKISGHSLSELSIHWVRQTPTKGFEWMGGFDPEENEIVYAQRFQGRVTMTEDTSIDTAYLTLSSLRSDDTAVYYCSIVGSFSGWAFDYWGKGTMVTVSS VL: QAVLTQPSSVSGAPGQRVTISCTGSGSNIGAPYDVSWYQQLPGTAPKLLIYHNNKRPSGVPDRFSASKSGTSASLAITGLQADDEADYYCQSYDSRTGIIVFGGGTKVTVL | 1.11 |  |  |
| Antibody 6 IgG4, non-germlined (antibody, V domains shown) VH: QVQLVQSGAEVKKPGASVKVSCKISGHSLSELSIHWVRQTPTKGFEWMGGFDPEENEIVYAQRFQGRVTMTEDTSIDTAYLTLSSLRSDDTAVYYCSIVGSFSPLTLGLWGKGTMVTVSS VL: QAVLTQPSSVSGAPGQRVTISCTGSGSNIGAPYDVSWYQQLPGTAPKLLIYHNNKRPSGVPDRFSASKSGTSASLAITGLQADDEADYYCATVEAGLSGSVFGGGTKLTVL |  | 0.00173 |  |
| 28G5 (Antibody 3) IgG4, parent antibody (antibody, V domains shown) VH: QVQLVQSGAEVKKPGASVKVSCKISGHSLSELSIHWVRQTPTKGFEWMGGFDPEENEIVYAQRFQGRVTMTEDTSIDTAYLTLSSLRSDDTAVYYCSIVGSFSGWAFDYWGKGTMVTVSS VL: QAVLTQPSSVSGAPGQRVTISCTGSGSNIGAPYDVSWYQQLPGTAPKLLIYHNNKRPSGVPDRFSASKSGTSASLAITGLQADDEADYYCQSYDSSLSGSVFGGGTKVTVL |  | ~5 |  |

Now from value to binder, other results behind:

| IC50, GM-CSF induced proliferation of TF-1 cells [2] [nM] | IC50, cynomolgus granulocyte shape change assay [3] [nM] | Binder | other results |
| --- | --- | --- | --- |
| 0.0133 |  | Antibody 18 IgG4 (antibody, V domains shown) VH: QVQLVQSGAEVKKPGASVKVSCKISGHSLSELFIHWVRQTPTKGFEWMGGFDPEENEIVYAQRFQGRVTMTEDTSIDTAYLTLSSLRSDDTAVYYCSTVGSFSGPALHLWGKGTMVTVSS VL: QAVLTQPSSVSGAPGQRVTISCTGSGSNIGAPYDVSWYQQLPGTAPKLLIYHNNKRPSGVPDRFSASKSGTSASLAITGLQADDEADYYCQSYDSQWNQPLFGGGTKVTVL |  |
|  | 0.0032 | Antibody 2 IgG4 (antibody, V domains shown) VH: QVQLVQSGAEVKKPGASVKVSCKISGHSLSELSIHWVRQTPTKGFEWMGGFDPEENEIVYAQRFQGRVTMTEDTSIDTAYLTLSSLRSDDTAVYYCSIVGSFSGPALRPWGKGTMVTVSS VL: QAVLTQPSSVSGAPGQRVTISCTGSGSNIGAPYDVSWYQQLPGTAPKLLIYHNNKRPSGVPDRFSASKSGTSASLAITGLQADDEADYYCQSYDSSLSGSVFGGGTKVTVL |  |
